Assay [1] deals with RAS proteins (endogenous, in cells). As to the kind of experiment: cell-based or functional assay.
In assay [2] the target is diphtheria toxin receptor (heparin-binding epidermal growth factor-like growth factor, HB-EGF) on Vero cells (UniProt Q09118). As to the kind of experiment: cell-based or functional assay.

With RRSP-APD-Δdta-dtB (enzyme), in assay [1], the EC50 of loss of RAS proteins in HeLa cells (immunoblot) worked out at 1 pM and the potency of RAS loss in HeLa cells against RRSP-dta-dtB came out at 300 fold.
With RRSP-dta-dtB (enzyme), the EC50 of loss of total RAS proteins in HeLa cells after 24 h (immunoblot with anti-RAS antibody) in assay [1] was found to be 250 pM.
Consider RRSP-Δdta-dtB (enzyme), for which, in assay [1], the EC50 of loss of RAS proteins in HeLa cells (immunoblot) was found to be 1 pM and the potency of RAS loss in HeLa cells against RRSP-dta-dtB amounted to 300 fold.
In the case of dtA-eGFP-dta-dtB, in assay [2], the EC50 of inhibition of protein synthesis (3H-leucine incorporation) in Vero cells, in the presence of 1 nM nontoxic DT is 215 pM and the EC50 of inhibition of protein synthesis (3H-leucine incorporation) in Vero cells, without competitor came out at 3.8 pM.

(Values after patent publication US20200255483A1.)
